B1: EPHB3 (protein)
chain: CLRKQRHGSDSEYTEKLQQYIAPGMKVYIDPFTYEDPNEAVREFAKEIDVSCVKIEEVIGAGEFGEVCRGRLKQPGRREVFVAIKTLKVGYTERQRRDFLSEASIMGQFDHPNIIRLEGVVTKSRPVMILTEFMENCALDSFLRLNDGQFTVIQLVGMLRGIAAGMKYLSEMNYVHRDLAARNILVNSNLVCKVSDFGLSRFLEDDPSDPTYTSSLGGKIPIRWTAPEAIAYRKFTSASDVWSYGIVMWEVMSYGERPYWDMSNQDVINAVEQDYRLPPPMDCPTALHQLMLDCWVRDRNLRPKFSQIVNTLDKLIRNAASLKVIASAQSGMSQPLLDRTVPDYTTFTTVGDWLDAIKMGRYKESFVSAGFASFDLVAQMTAEDLLRIGVTLAGHQKKILSSIQDMRLQMNQTLPVQV
B2: PRKD2(PKD2) (protein)
chain: MATAPSYPAGLPGSPGPGSPPPPGGLELQSPPPLLPQIPAPGSGVSFHIQIGLTREFVLLPAASELAHVKQLACSIVDQKFPECGFYGLYDKILLFKHDPTSANLLQLVRSSGDIQEGDLVEVVLSASATFEDFQIRPHALTVHSYRAPAFCDHCGEMLFGLVRQGLKCDGCGLNYHKRCAFSIPNNCSGARKRRLSSTSLASGHSVRLGTSESLPCTAEELSRSTTELLPRRPPSSSSSSSASSYTGRPIELDKMLLSKVKVPHTFLIHSYTRPTVCQACKKLLKGLFRQGLQCKDCKFNCHKRCATRVPNDCLGEALINGDVPMEEATDFSEADKSALMDESEDSGVIPGSHSENALHASEEEEGEGGKAQSSLGYIPLMRVVQSVRHTTRKSSTTLREGWVVHYSNKDTLRKRHYWRLDCKCITLFQNNTTNRYYKEIPLSEILTVESAQNFSLVPPGTNPHCFEIVTANATYFVGEMPGGTPGGPSGQGAEAARGWETAIRQALMPVILQDAPSAPGHAPHRQASLSISVSNSQIQENVDIATVYQIFPDEVLGSGQFGVVYGGKHRKTGRDVAVKVIDKLRFPTKQESQLRNEVAILQSLRHPGIVNLECMFETPEKVFVVMEKLHGDMLEMILSSEKGRLPERLTKFLITQILVALRHLHFKNIVHCDLKPENVLLASADPFPQVKLCDFGFARIIGEKSFRRSVVGTPAYLAPEVLLNQGYNRSLDMWSVGVIMYVSLSGTFPFNEDEDINDQIQNAAFMYPASPWSHISAGAIDLINNLLQVKMRKRYSVDKSLSHPWLQEYQTWLDLRELEGKMGERYITHESDDARWEQFAAEHPLPGSGLPTDRDLGGACPPQDHDMQGLAERISVL
B3: PRKCN(PKD3) (protein)
chain: MSANNSPPSAQKSVLPTAIPAVLPAASPCSSPKTGLSARLSNGSFSAPSLTNSRGSVHTVSFLLQIGLTRESVTIEAQELSLSAVKDLVCSIVYQKFPECGFFGMYDKILLFRHDMNSENILQLITSADEIHEGDLVEVVLSALATVEDFQIRPHTLYVHSYKAPTFCDYCGEMLWGLVRQGLKCEGCGLNYHKRCAFKIPNNCSGVRKRRLSNVSLPGPGLSVPRPLQPEYVALPSEESHVHQEPSKRIPSWSGRPIWMEKMVMCRVKVPHTFAVHSYTRPTICQYCKRLLKGLFRQGMQCKDCKFNCHKRCASKVPRDCLGEVTFNGEPSSLGTDTDIPMDIDNNDINSDSSRGLDDTEEPSPPEDKMFFLDPSDLDVERDEEAVKTISPSTSNNIPLMRVVQSIKHTKRKSSTMVKEGWMVHYTSRDNLRKRHYWRLDSKCLTLFQNESGSKYYKEIPLSEILRISSPRDFTNISQGSNPHCFEIITDTMVYFVGENNGDSSHNPVLAATGVGLDVAQSWEKAIRQALMPVTPQASVCTSPGQGKDHKDLSTSISVSNCQIQENVDISTVYQIFADEVLGSGQFGIVYGGKHRKTGRDVAIKVIDKMRFPTKQESQLRNEVAILQNLHHPGIVNLECMFETPERVFVVMEKLHGDMLEMILSSEKSRLPERITKFMVTQILVALRNLHFKNIVHCDLKPENVLLASAEPFPQVKLCDFGFARIIGEKSFRRSVVGTPAYLAPEVLRSKGYNRSLDMWSVGVIIYVSLSGTFPFNEDEDINDQIQNAAFMYPPNPWREISGEAIDLINNLLQVKMRKRYSVDKSLSHPWLQDYQTWLDLREFETRIGERYITHESDDARWEIHAYTHNLVYPKHFIMAPNPDDMEEDP
B4: PRKX (protein)
chain: MEAPGLAQAAAAESDSRKVAEETPDGAPALCPSPEALSPEPPVYSLQDFDTLATVGTGTFGRVHLVKEKTAKHFFALKVMSIPDVIRLKQEQHVHNEKSVLKEVSHPFLIRLFWTWHDERFLYMLMEYVPGGELFSYLRNRGRFSSTTGLFYSAEIICAIEYLHSKEIVYRDLKPENILLDRDGHIKLTDFGFAKKLVDRTWTLCGTPEYLAPEVIQSKGHGRAVDWWALGILIFEMLSGFPPFFDDNPFGIYQKILAGKIDFPRHLDFHVKDLIKKLLVVDRTRRLGNMKNGANDVKHHRWFRSVDWEAVPQRKLKPPIVPKIAGDGDTSNFETYPENDWDTAAPVPQKDLEIFKNF
B5: ROCK1 (protein)
chain: MSTGDSFETRFEKMDNLLRDPKSEVNSDCLLDGLDALVYDLDFPALRKNKNIDNFLSRYKDTINKIRDLRMKAEDYEVVKVIGRGAFGEVQLVRHKSTRKVYAMKLLSKFEMIKRSDSAFFWEERDIMAFANSPWVVQLFYAFQDDRYLYMVMEYMPGGDLVNLMSNYDVPEKWARFYTAEVVLALDAIHSMGFIHRDVKPDNMLLDKSGHLKLADFGTCMKMNKEGMVRCDTAVGTPDYISPEVLKSQGGDGYYGRECDWWSVGVFLYEMLVGDTPFYADSLVGTYSKIMNHKNSLTFPDDNDISKEAKNLICAFLTDREVRLGRNGVEEIKRHLFFKNDQWAWETLRDTVAPVVPDLSSDIDTSNFDDLEEDKGEEETFPIPKAFVGNQLPFVGFTYYSNRRYLSSANPNDNRTSSNADKSLQESLQKTIYKLEEQLHNEMQLKDEMEQKCRTSNIKLDKIMKELDEEGNQRRNLESTVSQIEKEKMLLQHRINEYQRKAEQENEKRRNVENEVSTLKDQLEDLKKVSQNSQL
B6: ROCK2 (protein)
chain: MSRPPPTGKMPGAPETAPGDGAGASRQRKLEALIRDPRSPINVESLLDGLNSLVLDLDFPALRKNKNIDNFLNRYEKIVKKIRGLQMKAEDYDVVKVIGRGAFGEVQLVRHKASQKVYAMKLLSKFEMIKRSDSAFFWEERDIMAFANSPWVVQLFYAFQDDRYLYMVMEYMPGGDLVNLMSNYDVPEKWAKFYTAEVVLALDAIHSMGLIHRDVKPDNMLLDKHGHLKLADFGTCMKMDETGMVHCDTAVGTPDYISPEVLKSQGGDGFYGRECDWWSVGVFLYEMLVGDTPFYADSLVGTYSKIMDHKNSLCFPEDAEISKHAKNLICAFLTDREVRLGRNGVEEIRQHPFFKNDQWHWDNIRETAAPVVPELSSDIDSSNFDDIEDDKGDVETFPIPKAFVGNQLPFIGFTYYRENLLLSDSPSCRETDSIQSRKNEESQEIQKKLYTLEEHLSNEMQAKEELEQKCKSVNTRLEKTAKELEEEITLRKSVESALRQLEREKALLQHKNAEYQRKADHEADKKRNLENDVNSLKDQLEDLKKRNQNSQI
B7: RPS6KA1(RSK1) (protein)
chain: MPLAQLKEPWPLMELVPLDPENGQTSGEEAGLQPSKDEGVLKEISITHHVKAGSEKADPSHFELLKVLGQGSFGKVFLVRKVTRPDSGHLYAMKVLKKATLKVRDRVRTKMERDILADVNHPFVVKLHYAFQTEGKLYLILDFLRGGDLFTRLSKEVMFTEEDVKFYLAELALGLDHLHSLGIIYRDLKPENILLDEEGHIKLTDFGLSKEAIDHEKKAYSFCGTVEYMAPEVVNRQGHSHSADWWSYGVLMFEMLTGSLPFQGKDRKETMTLILKAKLGMPQFLSTEAQSLLRALFKRNPANRLGSGPDGAEEIKRHVFYSTIDWNKLYRREIKPPFKPAVAQPDDTFYFDTEFTSRTPKDSPGIPPSAGAHQLFRGFSFVATGLMEDDGKPRAPQAPLHSVVQQLHGKNLVFSDGYVVKETIGVGSYSECKRCVHKATNMEYAVKVIDKSKRDPSEEIEILLRYGQHPNIITLKDVYDDGKHVYLVTELMRGGELLDKILRQKFFSEREASFVLHTIGKTVEYLHSQGVVHRDLKPSNILYVDESGNPECLRICDFGFAKQLRAENGLLMTPCYTANFVAPEVLKRQGYDEGCDIWSLGILLYTMLAGYTPFANGPSDTPEEILTRIGSGKFTLSGGNWNTVSETAKDLVSKMLHVDPHQRLTAKQVLQHPWVTQKDKLPQSQLSHQDLQLVKGAMAATYSALNSSKPTPQLKPIESSILAQRRVRKLPSTTL
B8: RPS6KA2(RSK3) (protein)
chain: MDLSMKKFAVRRFFSVYLRRKSRSKSSSLSRLEEEGVVKEIDISHHVKEGFEKADPSQFELLKVLGQGSYGKVFLVRKVKGSDAGQLYAMKVLKKATLKVRDRVRSKMERDILAEVNHPFIVKLHYAFQTEGKLYLILDFLRGGDLFTRLSKEVMFTEEDVKFYLAELALALDHLHSLGIIYRDLKPENILLDEEGHIKITDFGLSKEAIDHDKRAYSFCGTIEYMAPEVVNRRGHTQSADWWSFGVLMFEMLTGSLPFQGKDRKETMALILKAKLGMPQFLSGEAQSLLRALFKRNPCNRLGAGIDGVEEIKRHPFFVTIDWNTLYRKEIKPPFKPAVGRPEDTFHFDPEFTARTPTDSPGVPPSANAHHLFRGFSFVASSLIQEPSQQDLHKVPVHPIVQQLHGNNIHFTDGYEIKEDIGVGSYSVCKRCVHKATDTEYAVKIIDKSKRDPSEEIEILLRYGQHPNIITLKDVYDDGKFVYLVMELMRGGELLDRILRQRYFSEREASDVLCTITKTMDYLHSQGVVHRDLKPSNILYRDESGSPESIRVCDFGFAKQLRAGNGLLMTPCYTANFVAPEVLKRQGYDAACDIWSLGILLYTMLAGFTPFANGPDDTPEEILARIGSGKYALSGGNWDSISDAAKDVVSKMLHVDPHQRLTAMQVLKHPWVVNREYLSPNQLSRQDVHLVKGAMAATYFALNRTPQAPRLEPVLSSNLAQRRGMKRLTSTRL
B9: RPS6KA4(MSK2) (protein)
chain: MGDEDDDESCAVELRITEANLTGHEEKVSVENFELLKVLGTGAYGKVFLVRKAGGHDAGKLYAMKVLRKAALVQRAKTQEHTRTERSVLELVRQAPFLVTLHYAFQTDAKLHLILDYVSGGEMFTHLYQRQYFKEAEVRVYGGEIVLALEHLHKLGIIYRDLKLENVLLDSEGHIVLTDFGLSKEFLTEEKERTFSFCGTIEYMAPEIIRSKTGHGKAVDWWSLGILLFELLTGASPFTLEGERNTQAEVSRRILKCSPPFPPRIGPVAQDLLQRLLCKDPKKRLGAGPQGAQEVRNHPFFQGLDWVALAARKIPAPFRPQIRSELDVGNFAEEFTRLEPVYSPPGSPPPGDPRIFQGYSFVAPSILFDHNNAVMTDGLEAPGAGDRPGRAAVARSAMMQDSPFFQQYELDLREPALGQGSFSVCRRCRQRQSGQEFAVKILSRRLEANTQREVAALRLCQSHPNVVNLHEVHHDQLHTYLVLELLRGGELLEHIRKKRHFSESEASQILRSLVSAVSFMHEEAGVVHRDLKPENILYADDTPGAPVKIIDFGFARLRPQSPGVPMQTPCFTLQYAAPELLAQQGYDESCDLWSLGVILYMMLSGQVPFQGASGQGGQSQAAEIMCKIREGRFSLDGEAWQGVSEEAKELVRGLLTVDPAKRLKLEGLRGSSWLQDGSARSSPPLRTPDVLESSGPAVRSGLNATFMAFNRGKREGFFLKSVENAPLAKRRKQKLRSATASRRGSPAPANPGRAPVASKGAPRRANGPLPPS

Target: T1, Bovine, dephosphorylated, Myelin Basic Protein (MBP), P02687
T1 chain: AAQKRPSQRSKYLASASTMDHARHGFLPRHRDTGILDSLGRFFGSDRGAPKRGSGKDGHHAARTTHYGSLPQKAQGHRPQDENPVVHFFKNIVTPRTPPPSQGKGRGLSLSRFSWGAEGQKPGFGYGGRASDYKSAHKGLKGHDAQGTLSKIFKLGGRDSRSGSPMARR

Protein	MBP Kinase Activity
B1	Strong
B2	Strong
B3	Weak
B4	Negative
B5	Strong
B6	Strong
B7	Strong
B8	Negative
B9	Weak

From patent publication US20090099029
